Laboratory results taken from publication PMC1950596.

Legend:
[1] = target: Psu (polarity suppression protein), wild type, non-His-tagged (bacteriophage P4) (UniProt P05460); experiment: cross-linking
[2] = target: Psu (polarity suppression protein), wild type, non-His-tagged (bacteriophage P4) (UniProt P05460); experiment: SEC
[3] = target: Psu M6 mutant (P169V) (bacteriophage P4) (UniProt P05460); experiment: cross-linking
[4] = target: Δ-CTD10 Psu, His-tagged (pRS459, pET28b) (bacteriophage P4) (UniProt P05460); experiment: cross-linking

Substance “Psu (polarity suppression protein), wild type, non-His-tagged (from UniProt P05460 1-190) (natural protein)” has a stoichiometry N [1] of 2 and a stoichiometry N [2] of 3.

For “Psu M6 mutant (P169V) (from UniProt P05460 1-190) (natural protein)”, the stoichiometry N [3] was 2.

“Δ-CTD10 Psu, His-tagged (pRS459, pET28b) (from UniProt P05460 1-180) (domain or fragment)” showed a stoichiometry N [4] of 2.
